Measured values from US20090280528.

Columns and labels:
[1] = tested on: T1, NruI restriction endonuclease (recombinant) (Nocardia rubra); test: cleavage_in_vitro; details: 37 C, 30 min, NEB buffer 2; complete digestion pattern; approximate value
T1 sequence: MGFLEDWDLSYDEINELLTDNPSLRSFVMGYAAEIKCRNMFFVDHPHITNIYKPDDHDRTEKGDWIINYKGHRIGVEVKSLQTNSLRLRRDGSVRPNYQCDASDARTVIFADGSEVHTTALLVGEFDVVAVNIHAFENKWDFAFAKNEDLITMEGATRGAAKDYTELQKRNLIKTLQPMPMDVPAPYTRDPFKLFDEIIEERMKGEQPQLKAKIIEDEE

[2] = tested on: T2, Sbo13I restriction endonuclease (Shigella boydii 13); test: cleavage_in_vitro; details: 37 C, 10 mM Mg, 55 mM NaCl, pH 7.5; approximate value; lambda DNA assay
T2 sequence: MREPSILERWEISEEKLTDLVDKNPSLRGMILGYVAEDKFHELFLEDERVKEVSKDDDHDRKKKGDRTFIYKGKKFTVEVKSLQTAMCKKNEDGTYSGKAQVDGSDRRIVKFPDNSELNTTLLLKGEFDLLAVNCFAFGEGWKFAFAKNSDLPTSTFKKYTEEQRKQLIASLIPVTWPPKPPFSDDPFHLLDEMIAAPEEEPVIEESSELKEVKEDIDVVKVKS

Substance Lambda phage DNA has an activity (units per gram wet cells) [1] of 6.5e+06 and an activity (units per gram wet cell paste) [2] of 100000.
